# Experimental data from patent publication US20260076602A1, “SYSTEM AND METHOD FOR RAPID ASSESSMENT OF RENAL FUNCTION” (Mayo Foundation for Medical Education and Research, priority 2018, published 2026).
# Assay: Normalized fluorescence from retinal vasculature following IV injection of fluorescent tracer agents (renal clearance)
# Conditions: period of 15 min after IV injection, FIG. 12A
# Experimental: Normalized fluorescence from retinal vasculature following sequential IV FITC-inulin (green) and Rhod-Dex (500 kD, red) using Phoenix Research Systems Micron imaging may be obtained. Traces synchronized to tail-vein injection (T=0 min). […] Inulin clearance based on traces of normalized fluorescence and previous calibration of Inulin/Rhod-Dex ratio in WT mouse whole blood (insert). Dashed black lines=exponential and linear (insert) curve fits to inulin concentration.
# As an example, AK-Fluor®, a fluorescein-based substance, may be used as a first tracer agent that is substantially cleared by healthy renal function and emits a first fluorescent light when excited by a first excitation light. […] In some examples, a AK-Fluor® of 10^−7 g/ml is injected into the patient during an iGFR procedure. […] As shown, in addition to recording the fluorescence signals representing the fluorescent intensities of a first tracer agent and a second tracer agent, a decay rate of the first tracer agent may also be fitted to a first exponential order. […] As another example, FITC-inulin may also be used as a first tracer agent that is substantially cleared by healthy renal function and emits a first fluorescent light when excited by a first excitation light.
substance,measurement,value
FITC-inulin,fluorescence of tracer agent after injection (clearance by healthy renal function),decrease over a period of 15 min after injection
